Assay results: US20260152555A1 (HUAHUI HEALTH, published 2026)

Columns and labels:
[1] = molecular target: T1, hCD112R-ECD-His6-Avi (human, UniProt Q6DKI7 42-172, biotinylated (Avi tag) in the ELISA assays); experiment: SPR (Biacore T200), multi-cycle; H733 captured on anti-hFc Ab, hCD112R-ECD-His6-Avi injected; 1:1 Langmuir [Cont') B]
T1 construct: range 42-172; Expressed in HEK 293F cells; Analyte in SPR, and captured on streptavidin in ELISA; also called biotinylated hCD112R-ECD-His6-Avi; not shown: C-terminal His6-Avi tag
T1 sequence (looked up): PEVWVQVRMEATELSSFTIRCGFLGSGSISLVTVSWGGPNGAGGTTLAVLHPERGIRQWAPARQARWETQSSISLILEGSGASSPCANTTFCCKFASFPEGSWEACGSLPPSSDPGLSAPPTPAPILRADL
Experimental: (§1) Anti-hFc Ab (Thermo Fisher) was covalently attached to surfaces of a CM5 sensor chip using an amine coupling kit (GE Healthcare). Abs at optimal concentrations were captured on the chip and the analytes (hCD112R-ECD-His₆-Avi) at single concentration or serial dilutions were then injected. Binding kinetics were evaluated using a 1:1 Langmuir binding model. The association rates (ka), dissociation rates (kd), and affinity constants (KD) were calculated using Biacore T200 evaluation software.

[2] = molecular target: T2, K135A (human, UniProt Q6DKI7); experiment: SPR (Biacore T200), multi-cycle; H733-hIgG4 captured on anti-hFc Ab, hCD112R-ECD-mFc variant injected (3.125-100 nM); 1:1 Langmuir [Cont') B]
T2 construct: extracellular domain, amino acids 42-172; alanine-scanning variant; also called hCD112R-ECD-mFc K135A variant
T2 sequence (Fc fusion chain, looked up): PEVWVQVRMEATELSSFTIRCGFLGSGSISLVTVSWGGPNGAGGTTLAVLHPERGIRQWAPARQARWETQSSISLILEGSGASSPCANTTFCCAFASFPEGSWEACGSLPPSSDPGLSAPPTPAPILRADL
Experimental: (§2) Kinetic analyses of the bindings of WT or mutated hCD112R-ECD-mFc proteins to H733 and hCD112-ECD were performed on a Biacore T200 instrument (Biacore, GE Healthcare). For the single-cycle SPR analysis, anti-mFc Ab (Thermo Fisher) was covalently attached to surfaces of a CM5 sensor chip using an amine coupling kit (GE Healthcare). WT or mutated hCD112R-ECD mFc fusion proteins were captured on the chip and H733-hIgG4 or hCD112-ECD-hFc were then injected. For the multi-cycle SPR analysis, anti-hFc Ab (Thermo Fisher) was covalently attached to surfaces of a CM5 sensor chip using an amine coupling kit (GE Healthcare). H733-hIgG4 or hCD112-ECD-hFc protein was captured on the chip and 2-fold serially diluted WT or mutated hCD112R-ECD-mFc proteins (3.125-100 nM) were then injected. Binding kinetics were evaluated using a 1:1 Langmuir binding model. The association rates (ka), dissociation rates (kd), and affinity constants (KD) were calculated using Biacore T200 evaluation software.

[3] = molecular target: T3, H92A (human, UniProt Q6DKI7); experiment: as above
T3 construct: extracellular domain, amino acids 42-172; alanine-scanning variant; also called hCD112R-ECD-mFc H92A variant
T3 sequence (Fc fusion chain, looked up): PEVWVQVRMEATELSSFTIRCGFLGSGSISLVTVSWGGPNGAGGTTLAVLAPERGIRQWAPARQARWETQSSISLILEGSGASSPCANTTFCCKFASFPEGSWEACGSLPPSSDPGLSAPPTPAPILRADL
Experimental: as §2

[4] = molecular target: T4, E94A (human, UniProt Q6DKI7); experiment: as above
T4 construct: extracellular domain, amino acids 42-172; alanine-scanning variant; also called hCD112R-ECD-mFc E94A variant
T4 sequence (Fc fusion chain, looked up): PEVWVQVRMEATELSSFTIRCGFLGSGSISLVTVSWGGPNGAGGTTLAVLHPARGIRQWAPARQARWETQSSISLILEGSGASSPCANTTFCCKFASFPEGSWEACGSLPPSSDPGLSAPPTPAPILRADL
Experimental: as §2

[5] = molecular target: T5, hCD112R-ECD-mFc W100A variant (human; mouse, UniProt Q6DKI7 42-172); experiment: as above
T5 construct: range 42-172; also called W100A mutation of hCD112R; not shown: Fc domain of mouse IgG2a
T5 sequence (looked up): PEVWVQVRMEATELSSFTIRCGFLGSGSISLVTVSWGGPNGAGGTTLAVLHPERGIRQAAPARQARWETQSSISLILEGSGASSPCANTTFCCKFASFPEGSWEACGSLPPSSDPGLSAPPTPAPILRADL
Experimental: as §2

[6] = molecular target: T1, hCD112R-ECD-His6-Avi; experiment: SPR (Biacore T200), multi-cycle, H733 captured by anti-hFc Ab, hCD112R-ECD-His6-Avi as analyte, 1:1 Langmuir model
Experimental: as §1

[7] = molecular target: T6, human CD112R, full length, expressed on cells (YTS-hCD112R; Jurkat-NFAT-luc-hCD112R) (human, UniProt Q6DKI7 42-326); experiment: cell-based or functional assay
T6 sequence (looked up): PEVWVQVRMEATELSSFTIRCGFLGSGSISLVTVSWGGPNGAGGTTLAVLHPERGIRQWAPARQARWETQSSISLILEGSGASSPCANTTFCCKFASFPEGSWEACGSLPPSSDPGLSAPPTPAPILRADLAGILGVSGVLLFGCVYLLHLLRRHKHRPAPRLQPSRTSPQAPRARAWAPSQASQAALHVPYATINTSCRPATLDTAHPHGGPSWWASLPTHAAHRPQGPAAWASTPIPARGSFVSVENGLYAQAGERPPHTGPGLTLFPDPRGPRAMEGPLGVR

- koff [1]: 0.000865 s⁻¹
- kon [1]: 1.33e+06 M⁻¹ s⁻¹
- Kd [2]: 847 pM
- koff [2]: 0.000412 s⁻¹
- kon [2]: 487000 M⁻¹ s⁻¹
- Kd [3]: 366 pM
- koff [3]: 0.000373 s⁻¹
- kon [3]: 1.02e+06 M⁻¹ s⁻¹
- Kd [4]: 533 pM
- koff [4]: 0.000573 s⁻¹
- kon [4]: 1.08e+06 M⁻¹ s⁻¹
- Kd [5]: 5640 pM
- koff [5]: 0.000574 s⁻¹
- kon [5]: 102000 M⁻¹ s⁻¹
- Kd [6]: 650 pM
- EC50 of luciferase production, Jurkat-NFAT-luc-hCD112R reporter cells with CHO-OKT3scFv_hCD112 cells [7]: 0.39 µg/mL
B1: H733 (humanized Ab composed of 733-VH-humanV2 and 733-VL-human-C91S) (antibody, human IgG4, V domains shown)
VH: QVQLVQSGAEVKKPGASVKVSCKASGYTFTNYLIEWVRQAPGQGLEWMGVINPGHGFTNYAQKFQGRVTMTRDTSTSTVYMELSSLRSEDTAVYYCARGEWDWYFDVWGQGTTVTVSS
VL: DIQLTQSPSFLSASVGDRVTITCKASQNVGTAVAWYQQKPGKAPKLLIYSTSNRYTGVPSRFSGSGSGTEFTLTISSLQPEDFATYYCQQSSSYPFTFGGGTKVEIK
notes: also called H733-hIgG4; H733 mAb (hIgG4 form)
